From patent publication US20230129812A1, “COMPOSITIONS AND METHODS FOR TREATING PULMONARY HYPERTENSION” (Acceleron Pharma Inc., priority 2020, published 2023) come the findings set out here.

The target of data set [1] is T1, BMP10 (Homo sapiens, UniProt O95393).
T1 sequence (O95393 317-424): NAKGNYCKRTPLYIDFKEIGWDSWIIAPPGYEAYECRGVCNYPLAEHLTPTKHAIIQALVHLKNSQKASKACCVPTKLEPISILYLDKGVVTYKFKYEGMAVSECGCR
Description: Biacore ligand binding profile, ActRIIA-Fc:ALK4-Fc heterodimer vs homodimers, anti-Fc capture (Example 17, Table 14). The method, then: (§1) A Biacore™-based binding assay was used to compare ligand binding selectivity of the ActRIIA-Fc:ALK4-Fc heterodimeric complex described above with that of ActRIIA-Fc and ALK4-Fc homodimeric complexes. The ActRIIA-Fc:ALK4-Fc heterodimer, ActRIIA-Fc homodimer, and ALK4-Fc homodimer were independently captured onto the system using an anti-Fc antibody. Ligands were injected and allowed to flow over the captured receptor protein. Results are summarized in Table 14 below, in which ligand off-rates (kd) most indicative of effective ligand traps are denoted in bold.
For orientation: SPR reads the build-up and loss of mass on a sensor chip optically.

The target of another data set is T2, activin AC (Homo sapiens, UniProt P08476+P55103).
T2 sequence (P08476 311-426): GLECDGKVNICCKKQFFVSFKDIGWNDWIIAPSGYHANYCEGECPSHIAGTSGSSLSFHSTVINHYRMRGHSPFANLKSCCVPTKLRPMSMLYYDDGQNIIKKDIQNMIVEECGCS
T2 sequence (P55103 237-352): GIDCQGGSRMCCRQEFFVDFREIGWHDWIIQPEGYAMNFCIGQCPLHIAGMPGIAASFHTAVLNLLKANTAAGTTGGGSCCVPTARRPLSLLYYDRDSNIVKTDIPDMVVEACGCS
The description is as above. Particulars: for ka / kd: ligand Activin AC, Table 14. How it is done: as §1

The target in another data set is T3, BMP7 (Homo sapiens, UniProt P18075).
T3 sequence (P18075 293-431): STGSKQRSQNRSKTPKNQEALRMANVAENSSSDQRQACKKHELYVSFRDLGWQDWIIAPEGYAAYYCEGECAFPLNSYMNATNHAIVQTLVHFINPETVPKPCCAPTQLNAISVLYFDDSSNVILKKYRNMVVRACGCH
Described as above. Particulars: ligand BMP7, Table 14. The method, then:
as §1

The next data set concerns the target T4, activin A (Homo sapiens, UniProt P08476).
T4 sequence (P08476 311-426): T2 sequence (P08476 311-426)
Described as above. Particulars: for ka / kd: ligand Activin A, Table 14. How it is done:
as §1

For the next data set, the target named is T5, GDF11 (Homo sapiens, UniProt O95390).
T5 sequence (O95390 299-407): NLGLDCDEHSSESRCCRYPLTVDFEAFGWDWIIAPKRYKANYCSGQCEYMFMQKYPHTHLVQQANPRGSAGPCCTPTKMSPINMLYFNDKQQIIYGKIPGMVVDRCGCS
The data set is described as above. Particulars: for ka / kd: ligand GDF11, Table 14. The method, then:
as §1

Another data set concerns the target T6, activin AB (Homo sapiens, UniProt P08476+P09529).
T6 sequence (P08476 311-426): T2 sequence (P08476 311-426)
T6 sequence (P09529 293-407): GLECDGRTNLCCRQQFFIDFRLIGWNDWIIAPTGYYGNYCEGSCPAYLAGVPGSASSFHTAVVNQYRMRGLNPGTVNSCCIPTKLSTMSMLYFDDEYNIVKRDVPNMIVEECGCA
The description is as above. The note with it: for ka / kd: ligand Activin AB, Table 14. The method, then: as §1

A further data set concerns the target T7, BMP9 (Homo sapiens, UniProt Q9UK05).
T7 sequence (Q9UK05 320-429): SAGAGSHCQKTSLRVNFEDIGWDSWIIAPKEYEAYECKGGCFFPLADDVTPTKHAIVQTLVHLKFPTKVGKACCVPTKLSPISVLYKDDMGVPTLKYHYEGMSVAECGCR
Described as above. Particulars: ligand BMP9, Table 14. How it is done: as §1

The target of data set [2] is T8, activin B (Homo sapiens, UniProt P09529).
T8 sequence (P09529 293-407): T6 sequence (P09529 293-407)
Described as above. The note with it: for activin B binding: Example 17; for ka / kd: ligand Activin B, Table 14. The method, then: as §1

Data set [3] addresses T9, BMP6 (Homo sapiens, UniProt P22004).
T9 sequence (P22004 375-513): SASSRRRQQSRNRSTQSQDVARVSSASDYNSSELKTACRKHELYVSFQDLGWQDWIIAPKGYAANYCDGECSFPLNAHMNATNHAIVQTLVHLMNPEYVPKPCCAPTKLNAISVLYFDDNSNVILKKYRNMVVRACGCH
The description is as above. Particulars: ligand BMP6, Table 14. The method, then:
as §1

The target of the next data set is T10, GDF3 (Homo sapiens, UniProt Q9NR23).
T10 sequence (Q9NR23 251-364): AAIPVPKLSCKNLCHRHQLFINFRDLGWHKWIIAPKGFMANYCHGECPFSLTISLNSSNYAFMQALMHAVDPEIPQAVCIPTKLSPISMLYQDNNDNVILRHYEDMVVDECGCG
The description is as above. The note with it: ligand GDF3, Table 14. How it is done:
as §1

Data set [4] concerns the target T11, GDF8 (Homo sapiens, UniProt O14793).
T11 sequence (O14793 267-375): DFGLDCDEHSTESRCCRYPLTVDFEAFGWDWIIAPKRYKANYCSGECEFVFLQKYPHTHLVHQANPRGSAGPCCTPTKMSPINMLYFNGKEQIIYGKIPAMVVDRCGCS
The description is as above. The note with it: ligand GDF8, Table 14. How it is done: as §1

Data set [5] deals with T11, GDF8. The data set can be described thus: Similar Biacore binding assay (Example 1).
Data set [6] concerns the target T1, BMP10. The data set can be described thus: Similar Biacore binding assay (Example 1).
Data set [7] addresses T9, BMP6. Description: Similar Biacore binding assay (Example 1).
Data set [8] addresses T8, activin B. Description: Similar Biacore binding assay (Example 1).
Data set [9] is described as follows: Pharmacokinetic studies in rats. Type of data set: in vivo. How it is done: The ActRIIA-hFc was very stable in pharmacokinetic studies. Rats were dosed with 1 mg/kg, 3 mg/kg, or 10 mg/kg of ActRIIA-hFc protein, and plasma levels of the protein were measured at 24, 48, 72, 144 and 168 hours. In a separate study, rats were dosed at 1 mg/kg, 10 mg/kg, or 30 mg/kg.

Data set [10] can be described thus: Pharmacokinetics in cynomolgus monkeys. Type of data set: in vivo.
The mark [11] stands for this setting: initial administration of 1 mg/kg.
[12] abbreviates: initial administration of 10 mg/kg.

On to “ActRIIA-Fc homodimer: ActRIIA-Fc homodimeric complex used as comparator in Example 17”, for which the ka amounted to 2.9e+07 M⁻¹ s⁻¹ with BMP10 [1] (ligand BMP10, Table 14); 2.2e+07 M⁻¹ s⁻¹ with activin AC; 8.9e+06 M⁻¹ s⁻¹ with BMP7; 1.4e+07 M⁻¹ s⁻¹ with activin A; 7.3e+07 M⁻¹ s⁻¹ with GDF11; 2.8e+07 M⁻¹ s⁻¹ with activin AB. Besides, the ka with activin B [2] was 1.1e+07 M⁻¹ s⁻¹; with BMP6 [3], 2.7e+08 M⁻¹ s⁻¹; with GDF3, 1.5e+06 M⁻¹ s⁻¹; with GDF8 [4] it was 1.4e+06 M⁻¹ s⁻¹. The kd with BMP10 [1] (ligand BMP10, Table 14) is 0.0025 s⁻¹; with activin AC, 0.0079 s⁻¹; in the data set with BMP7 it was 0.033 s⁻¹; with activin A, 0.00062 s⁻¹; with GDF11 it was 0.00092 s⁻¹; with activin AB, 0.00026 s⁻¹. Besides, the kd entry is “Transient*” in the data set with BMP9; 0.00011 s⁻¹ with activin B [2]; 0.022 s⁻¹ with BMP6 [3]; 0.0036 s⁻¹ with GDF3; 0.0014 s⁻¹ with GDF8 [4]. For the same substance, the “activin B binding” value with activin B [2] was “highest affinity”.

For the substance “ActRIIA-Fc:ALK4-Fc heterodimer: soluble heteromeric complex of extracellular domains of human ActRIIA and human ALK4, each separately fused to an Fc domain with a linker”, the “BMP10 binding” value with BMP10 [1] (Example 17) was “markedly reduced binding”. The kd entry with BMP10 [1] (ligand BMP10, Table 14) was “Transient*”; with activin AC, 0.00054 s⁻¹; in the data set with BMP7, 0.072 s⁻¹; with activin A, 0.00024 s⁻¹; in the data set with GDF11, 0.00065 s⁻¹; with activin AB it was 0.00023 s⁻¹. The kd with activin B [2] was 0.00048 s⁻¹; with BMP6 [3] it was 0.012 s⁻¹; with GDF3, 0.0048 s⁻¹; with GDF8 [4], 0.0028 s⁻¹. Also, the “activin AC binding” value in the data set with activin AC (Example 17) is “particularly enhanced binding”. The ka in the data set with activin AC was 3.2e+06 M⁻¹ s⁻¹; in the data set with BMP7, 2e+07 M⁻¹ s⁻¹; with activin A it was 7.4e+06 M⁻¹ s⁻¹; with GDF11 it was 3e+07 M⁻¹ s⁻¹; in the data set with activin AB, 1.8e+07 M⁻¹ s⁻¹; with activin B [2] it was 9.5e+06 M⁻¹ s⁻¹. Further, the ka with BMP6 [3] was found to be 5.4e+06 M⁻¹ s⁻¹; with GDF3, 4.9e+07 M⁻¹ s⁻¹; with GDF8 [4] it was 1.8e+07 M⁻¹ s⁻¹. Besides, the “activin A binding” value with activin A (Example 17) is given as “enhanced binding”. In addition, the “GDF11 binding” value with GDF11 (Example 17) is “strong binding”. Further, the “activin AB binding” value with activin AB (Example 17) is “strong binding”. Further, in the data set with BMP9, the KD result is recorded as “No binding”. For the same substance, in the data set with activin B [2], the “activin B binding” value is “reduced affinity (albeit still within the high-affinity range)”.

On to “ActRIIA-hFc: extracellular domain of human ActRIIa fused to a human Fc domain with a minimal linker; homodimer”, for which the “affinity for GDF8” value with GDF8 [5] is “high to moderate affinity”. Besides, in the data set with BMP10 [6], the “affinity for BMP10” value is given as “high to moderate affinity”. In addition, in the data set with BMP6 [7], the “affinity for BMP6” value was “high to moderate affinity”. Besides, the “affinity for activin B” value in the data set with activin B [8] is “high to moderate affinity”. In [9], this substance gave a serum half-life of 11 to 14 days. Also, the “circulating levels of the drug after two weeks” value in data set [9] (setting [11]) is 11 µg/mL; in data set [9] (setting [12]) it was 110 µg/mL. In addition, in data set [10], the plasma half-life entry is “greater than 14 days”. The “circulating levels of the drug” value amounted to 25 µg/mL in [10] (setting [11]), 304 µg/mL in data set [10] (setting [12]) and 1440 µg/mL in data set [10] (initial administration of 30 mg/kg).
